Experimental data reported in article PMC8225418.

T1: wt Dpo4 (DNA polymerase IV) (Sulfolobus solfataricus, UniProt Q97W02 1-352)
T1 sequence: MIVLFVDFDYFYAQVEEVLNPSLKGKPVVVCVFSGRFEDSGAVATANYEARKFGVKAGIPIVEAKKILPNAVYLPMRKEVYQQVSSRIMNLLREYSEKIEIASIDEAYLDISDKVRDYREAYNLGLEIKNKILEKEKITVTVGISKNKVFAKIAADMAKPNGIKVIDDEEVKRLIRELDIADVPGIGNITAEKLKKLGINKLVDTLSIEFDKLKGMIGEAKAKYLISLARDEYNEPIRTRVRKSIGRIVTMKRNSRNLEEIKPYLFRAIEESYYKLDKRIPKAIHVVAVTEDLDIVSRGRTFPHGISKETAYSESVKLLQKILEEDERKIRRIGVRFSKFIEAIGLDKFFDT

B1: Alexa488-labeled DNAOH (dsDNA)
DNA 1: CGAGCCGTCGCATCCTACCGC
DNA 2: GATGCTGCAGCGGTAGGATGCGACGGCTCG
modifications: 5-C6-amino-2'-deoxythymidine at T13 of primer (ninth base from 3' end)
B2: DNAOH (21-mer/30-mer) (dsDNA)
DNA 1: CGAGCCGTCGCATCCTACCGC
DNA 2: B1 DNA 2

Columns and labels:
[1] = molecular target: T1, wt Dpo4 (DNA polymerase IV); assay: stopped-flow fluorescence anisotropy
[2] = molecular target: T1, wt Dpo4 (DNA polymerase IV); assay: stopped-flow FRET

| Binder | binding result [1] | binding result [2] |
| --- | --- | --- |
| B1 | binds |  |
| B2 |  | binds |
